The values that follow are results of earlier work, collected in article PMC6154725.

For the data set, the target named is Tyr7 (UniProt position 9, HHGWGYGQDDG). Kind of data set: NMR. The note with it: solution, Zn enzyme, no ligand mentioned.

In general, pKa refers to the negative logarithm of the acid dissociation constant. In the case of “Carbonic anhydrase II (HCA II) (Homo sapiens)”, the pKa was ~7.
